Measurements taken from patent publication US20080280358A1 (University of California, published 2008).

Target: Purified rabbit muscle actin (Cytoskeleton Inc.) (rabbit, UniProt P68135 3-377)
Test: cell-based or functional assay

bundling activity at 1:1 molar ratio to actin | bundling activity at molar ratio 100:1 | bundling activity at molar ratio peptide:actin = 1:1 | bundling activity at molar ratio to actin of 10 and 50 | effective peptide to actin ratio for bundling | bundling activity at molar ratio 10:1 and 100:1 | bundling when the peptide is present during polymerization | molar ratio of peptide to actin giving half-bundled and half-F-actin (co-polymerization, centrifugation, SDS-PAGE) | molar ratio of peptide:actin to bundle all the F-actin during polymerization | Binder
1 molar ratio peptide:actin | 100 molar ratio peptide:actin | 1 molar ratio peptide:actin | 50 molar ratio peptide:actin | 1 molar ratio peptide:actin | – | – | – | – | GIVRKWISRFEVWPYL [SS12 active synthetic peptide]
– | – | 1 molar ratio peptide:actin | – | ~16 molar ratio peptide:actin | 10 molar ratio peptide:actin | – | – | – | GIVRKAISRFEVAPYL [SS15 less active synthetic peptide]
1 molar ratio peptide:actin | – | 1 molar ratio peptide:actin | – | 1 molar ratio peptide:actin | – | 2 molar ratio peptide:actin | 0.5 molar ratio peptide:actin | 1 molar ratio peptide:actin | GIVRKWISRFEVWPYLKK [SS2 active peptide (SuSy 377-392)]
